Reference: article PMC3292258 (Nature, 2012)

Target: T1, MBP-YDA (Arabidopsis, UniProt Q9CAD5 1-883)
T1 sequence (looked up): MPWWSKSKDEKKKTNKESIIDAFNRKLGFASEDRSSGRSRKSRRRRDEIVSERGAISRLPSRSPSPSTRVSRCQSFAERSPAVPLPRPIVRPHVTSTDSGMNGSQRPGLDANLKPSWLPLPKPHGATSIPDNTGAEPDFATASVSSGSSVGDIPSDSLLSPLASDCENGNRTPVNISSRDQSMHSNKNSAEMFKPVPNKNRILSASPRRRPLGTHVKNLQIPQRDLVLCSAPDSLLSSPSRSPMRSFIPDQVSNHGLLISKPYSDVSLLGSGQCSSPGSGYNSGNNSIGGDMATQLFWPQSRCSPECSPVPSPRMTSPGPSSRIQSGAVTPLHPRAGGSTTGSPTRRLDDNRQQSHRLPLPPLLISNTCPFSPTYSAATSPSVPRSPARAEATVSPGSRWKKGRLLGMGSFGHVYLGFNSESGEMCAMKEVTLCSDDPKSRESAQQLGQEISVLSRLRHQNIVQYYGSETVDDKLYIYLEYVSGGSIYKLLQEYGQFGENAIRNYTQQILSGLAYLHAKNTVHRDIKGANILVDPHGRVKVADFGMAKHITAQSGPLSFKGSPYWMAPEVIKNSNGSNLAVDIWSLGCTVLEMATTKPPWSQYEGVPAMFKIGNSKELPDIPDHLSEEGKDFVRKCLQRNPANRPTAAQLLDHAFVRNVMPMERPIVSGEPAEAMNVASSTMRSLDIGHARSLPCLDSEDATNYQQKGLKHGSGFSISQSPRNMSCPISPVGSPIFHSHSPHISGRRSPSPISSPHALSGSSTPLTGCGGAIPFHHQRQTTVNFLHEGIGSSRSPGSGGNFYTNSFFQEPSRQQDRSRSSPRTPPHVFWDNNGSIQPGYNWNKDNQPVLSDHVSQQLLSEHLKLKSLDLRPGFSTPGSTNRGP
Assay: far-Western, overlay or dot blot

- binding result: binds
B1: GST-BIN2 (enzyme, Arabidopsis, UniProt Q39011 1-380, looked up)
chain: MADDKEMPAAVVDGHDQVTGHIISTTIGGKNGEPKQTISYMAERVVGTGSFGIVFQAKCLETGETVAIKKVLQDRRYKNRELQLMRVMDHPNVVCLKHCFFSTTSKDELFLNLVMEYVPESLYRVLKHYSSANQRMPLVYVKLYMYQIFRGLAYIHNVAGVCHRDLKPQNLLVDPLTHQVKICDFGSAKQLVKGEANISYICSRFYRAPELIFGATEYTTSIDIWSAGCVLAELLLGQPLFPGENAVDQLVEIIKVLGTPTREEIRCMNPHYTDFRFPQIKAHPWHKIFHKRMPPEAIDFASRLLQYSPSLRCTALEACAHPFFDELREPNARLPNGRPFPPLFNFKQEVAGSSPELVNKLIPDHIKRQLGLSFLNQSGT
